# Source: patent publication US20050106581A1, “Modified phosphodiesterase polypeptides with altered physiochemical properties” (priority 2002, published 2005)
# Tests used:
# [1] = Qualitative investigation of aggregation by size exclusion chromatography (gel filtration); type: physicochemical; details: Superose 12, compared to the five isoforms of PDE4D (D3, D5-D8)
# Experimental: The term “improved physicochemical properties” as used herein refers to a decrease in aggregate formation of polypeptides. For the purpose of definition, aggregate formation of the polypeptides of this invention is determined by quantitation of the fractions of a gelfiltration experiment in which aggregated PDE elutes, and of the fractions in which non-aggregated PDE elutes. The degree of aggregation is calculated in percent of non-aggregated PDE based on total (aggregated and non-aggregated) PDE. […] Chromatograms were recorded at 278 nm. […]
# 50 μl of Ni-NTA agarose purified isoform preparation was injected into a Superose 12 size exclusion column (type PC3.2/30; Amersham Pharmacia Biotech), equilibrated with 50 mM TrisHCl pH 7.7, 100 mM NaCl, 0.5 mM MgCl2 at a flow rate of 0.1 ml/min at 4° C. Chromatograms were recorded at 278 nm. […]
# [2] = Quantification of aggregates and tubulin content (SDS-PAGE densitometry of SEC fractions); type: physicochemical; details: compared to isoforms D3 and D5 to D8
# From the text: In a preferred embodiment, the invention provides a polypeptide comprising a PDE polypeptide sequence, with an amino-terminal deletion wherein the proportion of non-aggregated PDE in the total protein preparation is from 55 %, preferably from 60%, more preferably from 65%, most perferably from 68% to 100%, preferably to 90%, more preferably to 80%, most preferably to 70% of total protein, as determined by the quantitation of eluted fractions from a gel filtration of the PDE fractions. Quantitation was performed as follows: Equal volume aliquots of fractions from Size Exclusion Chromatography, run as hereinbefore described, were analyzed by SDS-PAGE (one gel per run and isoform, FIG. 3). […]
# To determine the decrease in tubulin association, the ratio of PDE molecules per tubulin molecules in the preparation of PDE polypeptide was calculated by quantitation of SDS-PAGE. […] The tubulin content of PDE preparations was determined as follows: Equal volume aliquots of fractions from SEC were analyzed by SDS-PAGE (one gel per run and isoform, FIG. 3). Optical densities of Coomassie stained PDE and tubulin bands were integrated as described hereinbefore for PDE aggregation quantitation. […]
# Quantification of Aggregates and Tubulin Content
# Equal volume aliquots of fractions from SEC were analyzed by SDS-PAGE (one gel per run and isoform, FIG. 3). […]
molecule,measurement,setting,value
"DC: PDE4D polypeptide with amino-terminal deletion starting at the LF1 splice site, SEQ ID No. 2, 6xHis tagged (protein, listed as Homo sapiens, 6xHis tag; PDE4D_core (1)..(664); LF1_splice_site (2)..(2); UCR1_site_-13 (22)..(22); UCR1_site (35)..(35); SER54 (39)..(39); SER579 (564)..(564)) MFDVDNGTSAGRSPLDPMTSPGSGLILQANFVHSQRRESFLYRSDSDYDLSPKSMSRNSSIASDIHGDDLIVTPFAQVLASLRTVRNNFAALTNLQDRAPSKRSPMCNQPSINKATITEEAYQKLASETLEELDWCLDQLETLQTRHSVSEMASNKFKRMLNRELTHLSEMSRSGNQVSEFISNTFLDKQHEVEIPSPTQKEKEKKKRPMSQISGVKKLMHSSSLTNSSIPRFGVKTEQEDVLAKELEDVNKWGLHVFRIAELSGNRPLTVIMHTIFQERDLLKTFKIPVDTLITYLMTLEDHYHADVAYHNNIHAADVVQSTHVLLSTPALEAVFTDLEILAAIFASAIHDVDHPGVSNQFLINTNSELALMYNDSSVLENHHLAVGFKLLQEENCDIFQNLTKKQRQSLRKMVIDIVLATDMSKHMNLLADLKTMVETKKVTSSGVLLLDNYSDRIQVLQNMVHCADLSNPTKPLQLYRQWTDRIMEEFFRQGDRERERGMEISPMCDKHNASVEKSQVGFIDYIVHPLWETWADLVHPDAQDILDTLEDNREWYQSTIPQSPSPAPDDPEEGRQGQTEKFQFELTLEEDGESDTEKDSGSQVEEDTSCSDSKTLCTQDSESTEIPLDEQVEEEAVGEEEESQPEACVIDDRSPDTHHHHHH",Aggregate formation (gel filtration elution profile),[1],decrease in aggregation
same,Percentage of non-aggregated PDE4D based on total PDE4D protein,[2],highest percentage of non-aggregated PDE4D
same,"Tubulin content (ratio between PDE4D and tubulin, total mass basis)",[2],significantly lower
